Target: the molecule itself
Assay: cryo-EM structure

B1: N-terminal IST1 R16E/K27E mutant (IST1NTD^R16E/K27E) (domain or fragment, human, UniProt P53990 1-189, looked up)
chain: MLGSGFKAERLRVNLELVINRLKLLEEKKTELAQKARKEIADYLAAGKDERARIRVEHIIREDYLVEAMEILELYCDLLLARFGLIQSMKELDSGLAESVSTLIWAAPRLQSEVAELKIVADQLCAKYSKEYGKLCRTNQIGTVNDRLMHKLSVEAPPKILVERYLIEIAKNYNVPYEPDSVVMAEAPP
B1: binds.
